System: MS2 coat protein
Assay: apparent KD of MS2 coat protein; designed switch direction (-1 OFF switch, 1 ON switch): 1; higher = weaker reporter binding
Outline: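 For each design, the apparent KD is the median over clusters of curves fitted to normalised cluster fluorescence. Clusters held RNA switches with common flanks, transcribed on Illumina chips by stalled E. coli RNA polymerase. These were titrated with SNAP-549-labelled MS2 coat protein, doubling from 0.7 or 1.5 nM to 3 µM, without input, with 200 uM small-molecule ligand, or with an oligonucleotide input.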

[1] = input ligand: microRNA oligo, concentration not stated
[2] = Eterna round: R95, input ligand: FMN 200 uM
[3] = Eterna round: R95, input ligand: microRNA oligo, concentration not stated
[4] = Eterna round: R95, input ligand: none

| Sequence | apparent KD of MS2 coat protein (input ligand: FMN 200 uM) | apparent KD of MS2 coat protein [1] | apparent KD of MS2 coat protein (input ligand: none) | apparent KD of MS2 coat protein [2] | apparent KD of MS2 coat protein [3] | apparent KD of MS2 coat protein [4] |
| --- | --- | --- | --- | --- | --- | --- |
| CACGUCCAGGUAGGAUAUGAGGUGCCACAGGGAAAAGCCUGUGGACAUGAGGAUCACCCAUGUCCUCAGAAGGGCCGGACGUGG [Reanorge] (Eterna round: R96, puzzle: Same State NG 2) | 17.3 nM | 52.8 nM | 72 nM | – | – | – |
| GCCGGCUGGUGAGGAUAUGGCACCUUAUUGGUGCCAGAAGGCAUGUCAAUUGACAUGAGGAUCACCCAUGUAUUAUCGUUGGCG [salish99_SSNG1_r04_607] (Eterna round: R96, puzzle: Same State NG 1) | 725 nM | 325 nM | 370 nM | – | – | – |
| CUGCUACAUGAGGAUCACCCAUGUUGGAGUAAUGCAGGAUAUGUGAGACCAGAAGAUAAAACAGAAGGGCAAGGAG [JR_SS!_Sub008] (puzzle: Same State 1) | – | – | – | 18.8 nM | 20.8 nM | 24.6 nM |
| CCAAAGUACAAUUUAGAUCUACAUGAGGAUCACCCAUGUACUGAGGAUAUCAGCUCGAUUAGAGCUGAGAAGGCAGAAUUAAUU [SSNG3/4-A2] (Eterna round: R96, puzzle: Same State NG 3) | 101 nM | 90 nM | 148 nM | – | – | – |
| UGACACACGGCAGGAUAUCGAUUGCAAAGCAAUCGAGAAGGGCCUCAUGUCGUGGAAACGUGACAUGAGGAUCACCCAUGUCGC [Omei SS(NG)1 Cv13] (Eterna round: R96, puzzle: Same State NG 1) | 53.1 nM | 11.6 nM | 24 nM | – | – | – |
| AAAAAACAUGAGGAUCACCCAUGUCAAAAGACUCGAGGAUAUGGGCAAAUAAAAUAAGAACCAGAAGGCGAGAAAA [salish99_ss1_r3_101] (puzzle: Same State 1) | – | – | – | 20 nM | 36.3 nM | 31.7 nM |
| GUAGCAUACCGAGGAUAUUCAUAUUACAUGAGGAUCACCCAUGUUAGGCCACAUUAGUGGCCUUGGGAGAAGGCGGAAUGCUAC [Xeonanis - 20 Mod40] (Eterna round: R96, puzzle: Same State NG 2) | 14.6 nM | 69.7 nM | 104 nM | – | – | – |
| GCUUGACAUGAGGAUCACCCAUGUCAUGCGGACACAGGAUAUCGUGGCCUGAAGCCGUCAUGAGAAGGGUGACCAA [Bibiedce] (puzzle: Same State 1) | – | – | – | 28.3 nM | 17.3 nM | 17.6 nM |
| GCCGCAAGGGCAGGAUAUGGGUCCAGAGCGCAAAUGCGCUCUGGUACAUGAGGAUCACCCAUGUCCCAGAAGGGCCCAAGCGAC [Xeatvearbe] (Eterna round: R96, puzzle: Same State NG 2) | 14.6 nM | 88.6 nM | 130 nM | – | – | – |
| GGAGCCGGUACUGAGGAUAUUCAUAUUAAAACAUGAGGAUCACCCAUGUAGGCCAGAAGGCCUUGGGAGAAGGCGGACCAGCUCG [Atgexeedri - 1] (Eterna round: R96, puzzle: Same State 2) | 27.5 nM | 302 nM | 417 nM | – | – | – |
| AACAAUCUAUCUCAGGAUAUCAUGUCAAAGACAUGAGGAUCACCCAUGUACCAGGAAACUGGUUAUGAGAAGGGAGAUAGAUUGU [Mat - Same State 2 - Mod - D23] (puzzle: Same State 2) | – | – | – | 157 nM | 68.2 nM | 268 nM |
| GCGAGCGUACUUGCUACAUGAGGAUCACCCAUGUCUAUUGGACAGGAUAUGGUACCGUUUCGGUACCAGAAGGGUUCAUCAUGU [JL SSNG3 3.72] (Eterna round: R96, puzzle: Same State NG 3) | 400 nM | 46.2 nM | 34.6 nM | – | – | – |
| UGGCUCAGACGAGGAUAUAUGCGAUCACAUGAGGAUCACCCAUGUCUCGAGCUUCGGCUCGAGGCAUAGAAGGUGUCUGAGCCU [SSNG2/4-C3] (Eterna round: R96, puzzle: Same State NG 2) | 23.9 nM | 70.3 nM | 94.7 nM | – | – | – |
| CUCAAACAUGAGGAUCACCCAUGUGUUGUCAUGGGAGGAUAUCUAAGUUCAUUGUAUUCAGGAGAAGGCCUAUGUC [× ×•×ª×• ×ž×“×™× ×” × ×—×ª-08] (puzzle: Same State 1) | – | – | – | – | 284 nM | – |
| GCCGCAGGCUAAGGAUAUUGCGUGAUCACAUGAGGAUCACCCAUGUCAAUAUCGCUACGGAAGAGCAAGAAGGUAGCGCCGCAG [Eternabot solution 10] (Eterna round: R96, puzzle: Same State NG 2) | 188 nM | 182 nM | 127 nM | – | – | – |
| AUAUGAGAAGCAGGAUAUGUGGAGAAGAAACAAACAGAAGGGCUUAUGGGACAACAUGAGGAUCACCCAUGUUCUCUGUGAUGA [ssng1 a] (Eterna round: R96, puzzle: Same State NG 1) | 47.9 nM | 137 nM | 240 nM | – | – | – |

| Sequence | apparent KD of MS2 coat protein (input ligand: FMN 200 uM) | apparent KD of MS2 coat protein [1] | apparent KD of MS2 coat protein (input ligand: none) | apparent KD of MS2 coat protein [2] | apparent KD of MS2 coat protein [3] | apparent KD of MS2 coat protein [4] |
| --- | --- | --- | --- | --- | --- | --- |
| GAGUGACGAUUAGGAUAUAUAGUGAUAAUGAUAAUAGAAGGAAUUGACAUGAGGAUCACCCAUGUAGGACUAAUCCAGAGAGAG [Parity 28 - Jieux - Same State NG 1] (Eterna round: R96, puzzle: Same State NG 1) | – | 44.9 nM | – | – | – | – |
| UGUUGUAUUACAGGAUAUCUAUUAGUUUUAGUUAGAGAAGGGUAUUCACAUGAGGAUCACCCAUGUAUAUACGAGGAAGUUGUG [JMF's solution 99] (Eterna round: R96, puzzle: Same State NG 1) | – | 34.6 nM | – | – | – | – |
| CUACUACAUGAGGAUCACCCAUGUUGGAGUGAUGCAGGAUAUGUGUGACCAGAAGAUGAAACAGAAGGGCAAAGAA [JR_SS!_Sub003] (puzzle: Same State 1) | – | – | – | 41.9 nM | 68 nM | 96.2 nM |
| ACAAUCUGGGUAGGAUAUCUAGGAUAUGGGAAAGACUAAGUCUGUAGGUCACCUAACCCAGAUGGAGAGAAGGACCCAACACAC [pwkr ssNG2 2FMN + F9.43] (Eterna round: R96, puzzle: Same State NG 2) | 95.8 nM | 3.94 nM | 202 nM | – | – | – |
| UUCGAGUAGCAAGGAUAUCUUAUUUAGAUUUUAAGAGAAGGUGCUUCACAGCUACAUGAGGAUCACCCAUGUCUUUCUUCUUAU [JR_SSNG1_Sub065] (Eterna round: R96, puzzle: Same State NG 1) | – | 27.3 nM | – | – | – | – |
| GCUAGAAAUAAAGCCAACAUGAGGAUCACCCAUGUAUGUUGGUAGGAUAUCGUUUGCAAAGCAAACGAGAAGGGCUAAACUAGC [Mat - Same State NG 3 - JL Mod - D17] (Eterna round: R96, puzzle: Same State NG 3) | 61.6 nM | 68.8 nM | 61 nM | – | – | – |
| UGUACAUGAGGAUCACCCAUGUCUAGACAUGUUAAUAUAAUGUAGGAUAUAUAAAAUUUAAUUUAAUAGAAGGACAAUUUUUUU [JMF's solution 1] (Eterna round: R96, puzzle: Same State NG 3) | 278 nM | 218 nM | 297 nM | – | – | – |
| AAGUAGUGGUCAGGAUAUCAAAUCAUUGCAUCACGAUACAUGAGGAUCACCCAUGUCCCAAAAUAUGAGAAGGGACUCACACGG [Eternabot solution 45] (Eterna round: R96, puzzle: Same State NG 2) | 279 nM | 90.1 nM | 186 nM | – | – | – |
| GGGAGACAUGAGGAUCACCCAUGUGGGAGGGAACGAGGAUAUGUAAGGAGAAAGAAUAGAACAGAAGGCGUAGGUG [JR_SS1_Sub021] (puzzle: Same State 1) | – | – | – | 35.8 nM | 55.5 nM | 60.8 nM |
| AGCCUGGAAGUCCAGGCAAAACAUGAGGAUCACCCAUGUACAUAGGAUAUCGUCUGAAAAGCAGACGAGAAGGGUGACCGAACU [Titedi] (Eterna round: R96, puzzle: Same State NG 3) | 687 nM | 96.8 nM | 192 nM | – | – | – |
| AGUGGACAUGAGGAUCACCCAUGUAUGCUGGCAUGAGGAUAUCCGAUUCGUUUCGACUAAGGAGAAGGCAUAGCCC [Geonla] (Eterna round: R96, puzzle: Same State 1) | 37 nM | 98.9 nM | 116 nM | – | – | – |
| AGGGAGGAAGCUGAGGAUAUCGUAAGGAGGACAUGAGGAUCACCCAUGUGUGUGGAAUUGGAGGACGAGAAGGCAGAGGAGUGGG [JR_SS2_Sub054] (puzzle: Same State 2) | – | – | – | 32.9 nM | 27.1 nM | 28.9 nM |
| GUUACAUGAGGAUCACCCAUGUGUGUGUGGGAGUGAGUGGCUUAGGAUAUCUAUGAUUUUAGUUAAGAGAAGGAGGAUUGUUGU [SS-NG3-LRO06] (Eterna round: R96, puzzle: Same State NG 3) | 365 nM | 322 nM | 380 nM | – | – | – |
| GACAUGAGGAUCACCCAUGUGAGCGCUUCAAUUUGCGCGACACAGGAUAUAGCAUGCUAUGCAUGCUAGAAGGGUGGUAAAGAC [Risoeserxe] (Eterna round: R96, puzzle: Same State NG 3) | 595 nM | 49.9 nM | 140 nM | – | – | – |
| UUCACCUUUUAUAACAUGAGGAUCACCCAUGUAUAUUGUACGUAGGAUAUCGAUGUUUGUUUUUUCGAGAAGGACGAUGUAAGU [JR_SSND3_Sub050] (Eterna round: R96, puzzle: Same State NG 3) | 37 nM | 25.4 nM | 38.9 nM | – | – | – |

— the supplement of paper PMC9170038
